Test results as given in US20120196307.

T1: synaptotagmin-1, intact 65 kDa protein (rat), P21707
T1 chain: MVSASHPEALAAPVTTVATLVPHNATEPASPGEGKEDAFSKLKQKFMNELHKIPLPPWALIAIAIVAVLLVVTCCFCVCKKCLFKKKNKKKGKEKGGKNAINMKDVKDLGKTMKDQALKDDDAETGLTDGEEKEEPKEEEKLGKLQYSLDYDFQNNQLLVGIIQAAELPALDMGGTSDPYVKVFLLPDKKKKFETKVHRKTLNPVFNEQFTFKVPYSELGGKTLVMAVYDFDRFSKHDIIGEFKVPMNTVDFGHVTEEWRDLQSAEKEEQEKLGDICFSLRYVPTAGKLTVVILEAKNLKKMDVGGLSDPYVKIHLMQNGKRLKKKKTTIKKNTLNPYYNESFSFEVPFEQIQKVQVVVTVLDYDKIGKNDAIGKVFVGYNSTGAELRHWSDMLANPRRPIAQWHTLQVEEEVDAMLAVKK

B1: rat recombinant calpain-2 (Calbiochem) (protein)
chain: MAGIAMKLAKDREAAEGLGSHERAIKYLNQDYETLRNECLEAGALFQDPSFPALPSSLGFKELGPYSSKTRGIEWKRPTEICADPQFIIGGATRTDICQGALGDCWLLAAIASLTLNEEILARVVPLDQSFQENYAGIFHFQFWQYGEWVEVVVDDRLPTKDGELLFVHSAEGSEFWSALLEKAYAKINGCYEALSGGATTEGFEDFTGGIAEWYELRKPPPNLFKIIQKALEKGSLLGCSIDITSAADSEAVTYQKLVKGHAYSVTGAEEVESSGSLQKLIRIRNPWGQVEWTGKWNDNCPSWNTVDPEVRANLTERQEDGEFWMSFSDFLRHYSRLEICNLTPDTLTCDSYKKWKLTKMDGNWRRGSTAGGCRNYPNTFWMNPQYLIKLEEEDEDDEDGERGCTFLVGLIQKHRRRQRKMGEDMHTIGFGIYEVPEELTGQTNIHLSKNFFLTTRARERSDTFINLREVLNRFKLPPGEYVLVPSTFEPHKNGDFCIRVFSEKKADYQTVDDEIEANIEEIEANEEDIGDGFRRLFAQLAGEDAEISAFELQTILRRVLAKREDIKSDGFSIETCKIMVDMLDEDGSGKLGLKEFYILWTKIQKYQKIYREIDVDRSGTMNSYEMRKALEEAGFKLPCQLHQVIVARFADDELIIDFDNFVRCLVRLEILFKIFKQLDPENTGTIQLDLISWLSFSVL
B2: human calpain-2 (Calbiochem, Cat#208715) (protein)
chain: AGIAAKLAKDREAAEGLGSHDRAIKYLNQDYEALRNECLEAGTLFQDPSFPAIPSALGFKELGPYSSKTRGIEWKRPTEICADPQFIIGGATRTDICQGALGDCWLLAAIASLTLNEEILARVVPLNQSFQENYAGIFHFQFWQYGEWVEVVVDDRLPTKDGELLFVHSAEGSEFWSALLEKAYAKINGCYEALSGGATTEGFEDFTGGIAEWYELKKPPPNLFKIIQKALQKGSLLGCSIDITSAADSEAITFQKLVKGHAYSVTGAEEVESNGSLQKLIRIRNPWGEVEWTGRWNDNCPSWNTIDPEERERLTRRHEDGEFWMSFSDFLRHYSRLEICNLTPDTLTSDTYKKWKLTKMDGNWRRGSTAGGCRNYPNTFWMNPQYLIKLEEEDEDEEDGESGCTFLVGLIQKHRRRQRKMGEDMHTIGFGIYEVPEELSGQTNIHLSKNFFLTNRARERSDTFINLREVLNRFKLPPGEYILVPSTFEPNKDGDFCIRVFSEKKADYQAVDDEIEANLEEFDISEDDIDDGFRRLFAQLAGEDAEISAFELQTILRRVLAKRQDIKSDGFSIETCKIMVDMLDSDGSGKLGLKEFYILWTKIQKYQKIYREIDVDRSGTMNSYEMRKALEEAGFKMPCQLHQVIVARFADDQLIIDFDNFVRCLVRLETLFKIFKQLDPENTGTIELDLISWLCFSVL
B3: human erythrocyte calpain-1 (protein)
chain: SEEIITPVYCTGVSAQVQKQRARELGLGRHENAIKYLGQDYEQLRVRCLQSGTLFRDEAFPPVPQSLGYKDLGPNSSKTYGIKWKRPTELLSNPQFIVDGATRTDICQGALGDCWLLAAIASLTLNDTLLHRVVPHGQSFQNGYAGIFHFQLWQFGEWVDVVVDDLLPIKDGKLVFVHSAEGNEFWSALLEKAYAKVNGSYEALSGGSTSEGFEDFTGGVTEWYELRKAPSDLYQIILKALERGSLLGCSIDISSVLDMEAITFKKLVKGHAYSVTGAKQVNYRGQVVSLIRMRNPWGEVEWTGAWSDSSSEWNNVDPYERDQLRVKMEDGEFWMSFRDFMREFTRLEICNLTPDALKSRTIRKWNTTLYEGTWRRGSTAGGCRNYPATFWVNPQFKIRLDETDDPDDYGDRESGCSFVLALMQKHRRRERRFGRDMETIGFAVYEVPPELVGQPAVHLKRDFFLANASRARSEQFINLREVSTRFRLPPGEYVVVPSTFEPNKEGDFVLRFFSEKSAGTVELDDQIQANLPDEQVLSEEEIDENFKALFRQLAGEDMEISVKELRTILNRIISKHKDLRTKGFSLESCRSMVNLMDRDGNGKLGLVEFNILWNRIRNYLSIFRKFDLDKSGSMSAYEMRMAIESAGFKLNKKLYELIITRYSEPDLAVDFDNFVCCLVRLETMFRFFKTLDTDLDGVVTFDLFKWLQLTMFA
B4: recombinant human caspase-3 (Chemicon) (protein)
chain: SGISLDNSYKMDYPEMGLCIIINNKNFHKSTGMTSRSGTDVDAANLRETFRNLKYEVRNKNDLTREEIVELMRDVSKEDHSKRSSFVCVLLSHGEEGIIFGTNGPVDLKKITNFFRGDRCRSLTGKPKLFIIQACRGTELDCGIETDSGVDDDMACHKIPVEADFLYAYSTAPGYYSWRNSKDGSWFIQSLCAMLKQYADKLEFMHILTRVNRKVATEFESFSFDATFHAKKQIPCIVSMLTKELYFYH

Columns and labels:
[1] = target: CRMP-2 C-terminal 53-mer (500-552) synthetic peptide, Q16555
[2] = target: T1, synaptotagmin-1, intact 65 kDa protein …
[3] = target: collapsin response mediator protein-2, intact (rat), P47942

Row | Protein | in vitro digestion of the synthetic peptide, Coomassie gel and N-terminal microsequencing [1] | in vitro protease digestion of lysate, Western blot [2] | in vitro protease digestion of naive brain lysate, Western blot [3]
1 | B1 | Purified CRMP-2 C-terminal 53-mer (500-552) peptide was synthesized and digested by rat calpain-2. |  | 
2 | B2 |  | Syt1-blot also showed a calpain-concentration-dependent reduction of intact Syt1. Calpain treatment also produced a BDP identical to the 33 Syt1-fragment produced following TBI. | 
3 | B3 |  | Digestion with calpain-1 showed identical results (data not shown). | 
4 | B4 |  | Syt1 was resistant to caspase-3 in the same samples | caspase-3 treatment did not produce the 55 kDa BDP
